Assay results: patent US20070148191A1

Target: CDw52 antigen (CAMPATH-1 antigen) (human) (UniProt P31358)
Assay: cell-based or functional assay

lysis in 51Cr release assay (ADCC) of SaOS-2 osteosarcoma cells with LAK effector cells, after 18 h: 45%
Substance: CAMPATH (antibody)
